The values that follow come from patent US20200231654A1 (published 2020).

Where two headings read alike, the source gives them in different places.

Experiment [1] concerns the target T1, active hMMP-9(cat)_His6 (UniProt P14780 107-449). Put plainly: enzyme inhibition; substrate peptide.
The target in experiment [2] is T1, active hMMP-9(cat)_His6. Put plainly: enzyme inhibition; substrate peptide. The source holds these as a separate data set.
The target of another experiment is P421A. Put plainly: substrate peptide enzyme inhibition.
A further experiment addresses S413Q. Put plainly: substrate peptide enzyme inhibition.
The target of the next experiment is G112R. Put plainly: substrate peptide degradation inhibition.
For a further experiment, the target named is E111P. Put plainly: substrate peptide degradation inhibition.
Another experiment addresses I198V. Put plainly: substrate peptide degradation inhibition.
Another experiment addresses P180A. Put plainly: substrate peptide degradation inhibition.
Another experiment deals with T109F. Put plainly: substrate peptide degradation inhibition.
In the next experiment the target is D113K. Put plainly: substrate peptide degradation inhibition.
In another experiment the target is G186A. Put plainly: substrate peptide degradation inhibition.
The target of the next experiment is Q108N. Put plainly: substrate peptide degradation inhibition.
A further experiment deals with L418A. Put plainly: substrate peptide enzyme inhibition.
A further experiment deals with D410E. Put plainly: substrate peptide enzyme inhibition.
The target of another experiment is L114P. Put plainly: substrate peptide degradation inhibition.
The next experiment addresses P196T. Put plainly: substrate peptide degradation inhibition.

The IC50 is the concentration at which inhibition is half-maximal.

T1 sequence (P14780 107-449): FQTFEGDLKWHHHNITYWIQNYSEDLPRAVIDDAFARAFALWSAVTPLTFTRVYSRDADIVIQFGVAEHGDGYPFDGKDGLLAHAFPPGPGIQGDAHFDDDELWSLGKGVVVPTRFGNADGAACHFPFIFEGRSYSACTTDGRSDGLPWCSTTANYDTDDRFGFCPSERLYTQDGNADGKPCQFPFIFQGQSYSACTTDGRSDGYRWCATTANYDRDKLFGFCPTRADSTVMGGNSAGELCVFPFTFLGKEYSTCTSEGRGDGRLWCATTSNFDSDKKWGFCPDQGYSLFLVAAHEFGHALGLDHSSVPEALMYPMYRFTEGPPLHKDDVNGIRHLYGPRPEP

B1: M91002_G3 (designed binder)
chain: GSGMKETAAAKFERQHMDSPDLGTDDDDKAMAENLYFQGDPQFGLFSKYRTPNCRTGRGPACQMGFQPVCGSDMSTYANECTLCMKIREGGHNIKIIRNGPCGGG
B1 came in with an IC50 in the experiment with active hMMP-9(cat)_His6 [1] of 3.5 nM.

B2: M91005_D1G-Fc-01 (Fc fusion)
chain: GSGMKETAAAKFERQHMDSPDLGTDDDDKAMADIGSANSGPQFGLFSKYRTPNCRKRGGPSCQMSYNPVCGSDMSTYANECTLCMKIREGGHNIKIIRNGPCGASAAAGGGGSDKTHTCPPCPAPELLGGPSVFLFPPKPKDTLMISRTPEVTCVVVDVSHEPEVKFNWYVDGVEVHNAKTKPREEQYNSTYRVVSVLTVLHQDWLNGKEYCKVSNKALPAPIEKTISKAKGQPREPQVYTLPPSREEMTKNQVSLTCLVGFYPSDIAVEWESNGQPENNYKTTPPVLDSDGSFFLYSKLTVDKSRWQQNVFSCSVMHEALHNHYTQKSLSLSPGK
With B2, in the experiment with active hMMP-9(cat)_His6 [2], the IC50 came to 4.3 nM.

B3: M91011 (designed binder)
chain: GSGMKETAAAKFERQHMDSPDLGTDDDDKAMADIGSANSDPQFGLFSKYRTPNCMMYKYAQCSHKSQPVCGSDMSTYANECTLCMKIREGGHNIKIIRNGPCGASAAA
For B3, the IC50 was determined as 8.7 nM in the experiment with P421A; 28 nM with S413Q; 15 nM in the experiment with G112R; 23 nM in the experiment with E111P; 16 nM in the experiment with I198V; 24 nM with P180A. The IC50 in the experiment with T109F was 15 nM; in the experiment with D113K it was 21 nM; with G186A it was 16 nM; with Q108N, 21 nM.

B4: M91002_G2 (designed binder)
chain: GSGMKETAAAKFERQHMDSPDLGTDDDDKAMAENLYFQGDPQFGLFSKYRTPNCRTGRGPACQMGFQPVCGSDMSTYANECTLCMKIREGGHNIKIIRNGPCGG
With B4, in the experiment with active hMMP-9(cat)_His6 [1], half-maximal inhibition (IC50) was put at 3.5 nM.

B5: M91005 (designed binder)
chain: GSGMKETAAAKFERQHMDSPDLGTDDDDKAMADIGSANSDPQFGLFSKYRTPNCRKRGGPSCQMSYNPVCGSDMSTYANECTLCMKIREGGHNIKIIRNGPCGASAAA
Consider B5, for which the half-maximal inhibitory concentration (IC50) turned out to be 9.3 nM in the experiment with L418A; 22 nM with D410E; 23 nM in the experiment with P421A; 30 nM in the experiment with S413Q; 22 nM in the experiment with L114P; 19 nM in the experiment with G112R. The IC50 turned out to be 31 nM with E111P; 16 nM in the experiment with I198V; 25 nM in the experiment with P180A; 15 nM in the experiment with T109F; 18 nM in the experiment with P196T; 21 nM with D113K. Besides, the figures for the half-maximal inhibitory concentration (IC50) with G186A and in the experiment with Q108N were 15 nM and 20 nM, respectively.

B6: M91002_G0 (designed binder)
chain: GSGMKETAAAKFERQHMDSPDLGTDDDDKAMAENLYFQGDPQFGLFSKYRTPNCRTGRGPACQMGFQPVCGSDMSTYANECTLCMKIREGGHNIKIIRNGPC
Molecule B6 gave an IC50 with active hMMP-9(cat)_His6 [1] of 3.6 nM.
